Patent US20200016201A1
Each block holds one binder with its values, some of them ahead of it.

How the values were obtained:
[1] = target: HLA-DR on human cells (human); test: avidity constant on tonsil lymphocytes
[2] = target: HLA-DR on human cells (human); test: avidity constant, Scatchard plot analysis on the target tumor cell line (ARH-77)

Ka [1]: 8.8e+07 M⁻¹
B1: Lym-1 (antibody, V domains shown)
VH: QLKESGPGLVAPSQSLSITCTISGFSLTSYGVHWVRQPPGKGLEWLVVIWSDGSTTYNSALKSRLSISKDNSKSQVFLKMNSLQTDDTAIYYCASHYGSTLAFASWGHGTLVTVSA
VL: DIQMTQSPASLSASVGETVTIICRASVNIYSYLAWYQQKQGKSPQLLVYNAKILAEGVPSRFSGSGSGTQFSLKINSLQPEDFGSYYCQHHYGTFTFGSGTKLEIK

Ka [1]: 1.23e+08 M⁻¹
Ka [2]: 2.33e+08 M⁻¹
B2: Lym-2 (antibody, V domains shown)
VH: EVQLEESGGGLVQPGGSMKLSCVASGFTFSNYWMNWVRQSPEKGLEWVAEIRFKSHNYATHFAESVKGRFTISRDDSKSSVYLQMNNLRAEDTGIYYCTRRIGNSDYDWWYFDVWGAGTSVTVSS
VL: DIVMTQSHKFMSTSVGDRVSVTCKASQNVGNNVAWYQQKPGQSPKVLIYSASYRYSGVPDRFTGSGSGTDFTLTISNVQSEDLAEYFCQQYNTYPFTFGSGTKLEIK
